Measurements as given in article PMC11316045.

Tests used:
[1] = anti-Flag immunofluorescence, also with HSP90B1/DAPI co-staining; details: glycan lost; control: wild type
[2] = FACS of cell surface PD-L1, H460; details: glycan lost; control: wild type
[3] = anti-Flag immunofluorescence, H460 and PD-L1 KO cells; details: glycan lost; control: untreated

| Substance | localisation_or_trafficking [1] | localisation_or_trafficking [2] | localisation_or_trafficking [3] |
| --- | --- | --- | --- |
| PD-L1: N200Q | no change | no change |  |
| PD-L1: N192Q | no change | no change |  |
| PD-L1: tunicamycin (5μg/ml) |  |  | changes |
| PD-L1: N219Q | changes | decreases |  |
| PD-L1: N35Q | no change | no change |  |
